Earlier results as cited in publication PMC8538444.

Target: SP-BN N-terminal saposin-like segment of the SP-B proprotein (Homo sapiens) (UniProt P07988)
Chain of UniProt P07988 (P07988 65-147): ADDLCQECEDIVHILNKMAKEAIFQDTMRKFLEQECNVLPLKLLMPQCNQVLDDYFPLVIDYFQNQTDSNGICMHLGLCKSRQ

For SP-A (from UniProt Q8IWL2), the Kd is given as 400 nM.
